Experiment [1] concerns the target human PCSK9 with a C-terminal myc-myc-hexahistidine tag (human) (UniProt Q8NBP7). The experiment in a line: SPR 25C pH 7.4, purified mAb captured.
For experiment [2] the target is unchanged. Description: SPR 25C pH 6.0, purified mAb captured.
For experiment [3] the target is unchanged. Description: SPR (Biacore), 37 °C; antibody captured on anti-human Fc surface, hPCSK9-mmH injected (3.125-50 nM); association at pH 7.4, dissociation at pH 7.2.
Experiment [4] has the same target. Description: SPR 25C, purified mAb captured.
The target is the same in experiment [5]. Description: blocking ELISA pH 7.2, 500 pM hPCSK9-mmH vs coated hLDLR EGFA-hFc.
For experiment [6] the target is unchanged. The experiment in a line: SPR (Biacore), 37 °C; antibody captured on anti-human Fc surface, hPCSK9-mmH injected (3.125-50 nM); association at pH 7.4, dissociation at pH 5.75.
For experiment [7] the target is unchanged. Description: SPR (Biacore), 37 °C; antibody captured on anti-human Fc surface, hPCSK9-mmH injected (3.125-50 nM); association at pH 7.4, dissociation at pH 6.0. (SPR reads the build-up and loss of mass on a sensor chip optically.)
For experiment [8] the target is unchanged. The experiment in a line: blocking ELISA, hPCSK9-mmH vs coated hLDLR EGFA-hFc. For orientation: In an ELISA, binding on a coated surface is turned into a signal by an enzyme label.
For experiment [9], the target named is human PCSK9 with a C-terminal myc-myc hexahistidine tag and a D374Y mutation (human) (UniProt Q8NBP7). Description: cell-based or functional assay.
In experiment [10] the target is human PCSK9 with a C-terminal myc-myc-hexahistidine tag (human) (UniProt Q8NBP7). Description: cell-based or functional assay.
The target of experiment [11] is recombinant cynomolgus monkey PCSK9 with a C-terminal myc-myc hexahistidine tag (cynomolgus monkey). Description: cell-based or functional assay.
In experiment [12] the target is human PCSK9 with a C-terminal myc-myc-hexahistidine tag (human) (UniProt Q8NBP7). The experiment in a line: blocking ELISA pH 5.75, 500 pM hPCSK9-mmH vs coated hLDLR EGFA-hFc.
The target is the same in experiment [13]. Description: SPR (Biacore), 37 °C; antibody captured on anti-human Fc surface, hPCSK9-mmH injected (3.125-50 nM); association at pH 7.4, dissociation at pH 7.4.

By Kd is commonly meant the constant that tells how readily two partners part at equilibrium. By koff is commonly meant the rate constant with which the complex falls apart. As a reminder, the kon is the rate constant with which the complex forms. Broadly, the t½ is how long it takes for the measured level to halve. In general, IC50 refers to the concentration that inhibits the measured activity by half.

B1: Comparator 7 (antibody, from another filing, IgG2, V domains shown)
VH: QVQLVQSGAEVKKPGASVKVSCKASGYTLTSYGISWVRQAPGQGLEWMGWVSFYNGNTNYAQKLQGRGTMTTDPSTSTAYMELRSLRSDDTAVYYCARGYGMDVWGQGTTVTVSS
VL: QSALTQPASVSGSPGQSITISCTGTSSDVGGYNSVSWYQQHPGKAPKLMIYEVSNRPSGVSNRFSGSKSGNTASLTISGLQAEDEADYYCNSYTSTSMVFGGGTKLTVLQ
For B1, in [1], the Kd was 0.728 nM, the koff was 6.09e-05 s⁻¹, the kon amounted to 83600 M⁻¹ s⁻¹ and the t½ turned out to be 3.16 h. In experiment [2], this molecule showed a Kd of 0.205 nM, a koff of 2.84e-05 s⁻¹, a kon of 138000 M⁻¹ s⁻¹ and a t½ of 6.79 h. In [3], this molecule showed a t½ (dissociative half-life) of 1.47 h. In addition, in experiment [4], the KD ratio pH 6.0/pH 7.4 came to 0.28, the ka ratio pH 6.0/pH 7.4 was 1.65, the kd ratio pH 6.0/pH 7.4 worked out at 0.47 and the t½ ratio pH 6.0/pH 7.4 worked out at 2.15. In experiment [5], this molecule had an IC50 of 0.245 nM. Moreover, the t½ (dissociative half-life) in experiment [6] amounted to 1.44 h. The t½ (dissociative half-life) in experiment [7] is 1.19 h. Also, the IC50 ratio (pH 5.75/pH 7.2) in experiment [8] came to 1.3. The same molecule gave an IC50, LDL uptake in HepG2 cells, 2 nM hPCSK9-D374Y-mmH in experiment [9] of 0.97 nM. Moreover, the IC50, LDL uptake in HepG2 cells, 50 nM hPCSK9-mmH in [10] came out at 8.9 nM. Moreover, the IC50, LDL uptake in HepG2 cells, 50 nM MfPCSK9-mmH in [11] is 10.4 nM. The same molecule gave an IC50 in experiment [12] of 0.331 nM. For the same molecule, the t½ (dissociative half-life) in experiment [13] was determined as 1.5 h.

The values are drawn from US20140044730A1.
